The results in this text go back to patent US20240059785A1.

For assay [1], the target named is human CD20 (Homo sapiens CD20) (Homo sapiens) (UniProt P11836). Briefly: cell-based or functional assay.
The target in assay [2] is human CD37 (Homo sapiens CD37) (Homo sapiens) (UniProt P11049). Briefly: cell-based or functional assay.
Sequence of human CD37 (Homo sapiens CD37) (Homo sapiens) (P11049 whole entry): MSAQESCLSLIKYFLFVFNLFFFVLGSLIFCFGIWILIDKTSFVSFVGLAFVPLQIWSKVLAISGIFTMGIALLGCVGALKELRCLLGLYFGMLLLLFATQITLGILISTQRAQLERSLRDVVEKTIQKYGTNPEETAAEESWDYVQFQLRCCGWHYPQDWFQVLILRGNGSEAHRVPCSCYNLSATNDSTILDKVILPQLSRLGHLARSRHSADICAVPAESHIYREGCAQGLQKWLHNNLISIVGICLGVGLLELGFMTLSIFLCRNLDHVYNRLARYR

Sequence of human CD20 (Homo sapiens CD20) (Homo sapiens) (P11836 whole entry): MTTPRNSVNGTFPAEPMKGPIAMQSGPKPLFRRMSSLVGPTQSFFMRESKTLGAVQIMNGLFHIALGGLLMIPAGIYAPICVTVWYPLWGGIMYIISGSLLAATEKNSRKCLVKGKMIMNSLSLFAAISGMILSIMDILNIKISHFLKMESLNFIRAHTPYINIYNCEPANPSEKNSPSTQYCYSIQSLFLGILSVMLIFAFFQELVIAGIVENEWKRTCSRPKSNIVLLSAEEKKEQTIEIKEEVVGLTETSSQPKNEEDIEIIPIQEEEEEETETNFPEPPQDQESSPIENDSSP

In assay [1], “human IgG1 isotype control antibody (an anti-dinitrophenyl (anti-DNP) antibody)” gave an ADCC reporter assay (FcγRIII-transfected Jurkat NFAT luciferase effector cells), Mean RLU, CD20/CHO target cells, Effector:Target 4:1 of 20900 RLU; an ADCC reporter assay (FcγRIII-transfected Jurkat NFAT luciferase effector cells), Mean RLU, CD20/CHO target cells, Effector:Target 8:1 of 36000 RLU; an ADCC reporter assay (FcγRIII-transfected Jurkat NFAT luciferase effector cells), Mean RLU, Raji target cells (express both hCD20 and hCD37), Effector:Target 4:1 of 16600 RLU; an ADCC reporter assay (FcγRIII-transfected Jurkat NFAT luciferase effector cells), Mean RLU, Raji target cells (express both hCD20 and hCD37), Effector:Target 8:1 of 31500 RLU. Besides, in assay [2], the ADCC reporter assay (FcγRIII-transfected Jurkat NFAT luciferase effector cells), Mean RLU, CD37/CHO target cells, Effector:Target 4:1 was found to be 20600 RLU and the ADCC reporter assay (FcγRIII-transfected Jurkat NFAT luciferase effector cells), Mean RLU, CD37/CHO target cells, Effector:Target 8:1 is 36200 RLU.
As to rituximab (antibody), in assay [2], the ADCC reporter assay (FcγRIII-transfected Jurkat NFAT luciferase effector cells), Mean RLU, CD37/CHO target cells, Effector:Target 4:1 was determined as 20500 RLU and the ADCC reporter assay (FcγRIII-transfected Jurkat NFAT luciferase effector cells), Mean RLU, CD37/CHO target cells, Effector:Target 8:1 was found to be 35900 RLU.
